Values quoted from earlier work, collected in patent US20220184026A1, “COMPOSITIONS OF FULVIC ACID AND CANNABINOID AND USES THEREOF” (Omni Bioceutical Innovations, Inc., priority 2019, published 2022).
Where two headings read alike, the source gives them in different places.

Test system: chronic wounds
Parameters: key: N.S. = not statistically significant

B1: platelet-derived growth factor BB (protein, UniProt P01127 82-190, looked up)
Platelet-derived growth …: SLGSLTIAEPAMIAECKTRTEVFEISRRLIDRTNANFLVWPPCVEVQRCSGCCNNRNVQCRPTQVQLRPVQVRKIEIVRKKPIFKKATVTLEDHLACKCETVAAARPVT
Mustoe et al., pressure wounds (n=45), 1 and 3 μg/mL daily
  Results: N.S.
Robson et al., pressure wounds (n=20), 1, 10, and 100 μg/mL daily
  Results: N.S.

B2: transforming growth factor-β2 (protein, UniProt P61812 303-414, looked up)
Transforming growth factor …: ALDAAYCFRNVQDNCCLRPLYIDFKRDLGWKWIHEPKGYNANFCAGACPYLWSSDTQHSRVLSLYNTINPEASASPCCVSQDLEPLTILYYIGKTPKIEQLSNMIVKSCKCS
Robson et al., venous wounds (n=36), 2.5 μg/cm^2 three times per week
  Results: N.S.
